Publication doi:10.1101/2023.03.09.531510

How the values were obtained:
Assay in all cases: protein-fragment complementation
Vrp1 = Vrp1 (UniProt P37370)
Pab1 = Pab1 (UniProt P04147)
Pfk1 = Pfk1 (UniProt P16861)
Hek2 = Hek2 (UniProt P38199)
Sfk1 = Sfk1 (UniProt P35735)
Aim21 = Aim21 (UniProt P40563)
Sbp1 = Sbp1 (UniProt P10080)
Pan1 = Pan1 (UniProt P32521)
Bmh1 = Bmh1 (UniProt P29311)
Ste20 = Ste20 (UniProt Q03497)
Mid2 = Mid2 (UniProt P36027)
Srv2 = Srv2 (UniProt P17555)
Bbc1 = Bbc1 (UniProt P47068)
Cmd1 = Cmd1 (UniProt P06787)
Chain of UniProt P06787 (P06787 whole entry): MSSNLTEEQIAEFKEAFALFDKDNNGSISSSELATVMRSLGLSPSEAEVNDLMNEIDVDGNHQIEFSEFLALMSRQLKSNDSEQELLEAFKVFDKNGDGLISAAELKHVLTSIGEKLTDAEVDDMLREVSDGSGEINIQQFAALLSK

Sac6 = Sac6 (UniProt P32599)
Chain of UniProt P32599 (P32599 whole entry): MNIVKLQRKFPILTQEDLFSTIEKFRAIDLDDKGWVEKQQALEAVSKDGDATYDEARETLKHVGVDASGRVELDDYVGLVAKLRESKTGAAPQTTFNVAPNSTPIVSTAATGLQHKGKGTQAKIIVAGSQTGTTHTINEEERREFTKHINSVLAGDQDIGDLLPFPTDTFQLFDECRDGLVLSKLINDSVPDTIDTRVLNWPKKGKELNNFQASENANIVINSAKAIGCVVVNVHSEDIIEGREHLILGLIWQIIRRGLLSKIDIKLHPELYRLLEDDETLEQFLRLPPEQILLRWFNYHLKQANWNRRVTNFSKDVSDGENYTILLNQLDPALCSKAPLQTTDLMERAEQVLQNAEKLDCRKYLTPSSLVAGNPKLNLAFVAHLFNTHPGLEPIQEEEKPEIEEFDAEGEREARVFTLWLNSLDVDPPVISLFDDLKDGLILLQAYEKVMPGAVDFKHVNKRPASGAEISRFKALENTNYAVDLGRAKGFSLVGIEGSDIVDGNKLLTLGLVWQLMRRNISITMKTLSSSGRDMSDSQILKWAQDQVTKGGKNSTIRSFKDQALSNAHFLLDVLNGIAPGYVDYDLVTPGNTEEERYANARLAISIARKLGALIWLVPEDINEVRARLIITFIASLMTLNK

Cdc3 = Cdc3 (UniProt P32457)
Nap1 = Nap1 (UniProt P25293)
Chain of UniProt P25293 (P25293 whole entry): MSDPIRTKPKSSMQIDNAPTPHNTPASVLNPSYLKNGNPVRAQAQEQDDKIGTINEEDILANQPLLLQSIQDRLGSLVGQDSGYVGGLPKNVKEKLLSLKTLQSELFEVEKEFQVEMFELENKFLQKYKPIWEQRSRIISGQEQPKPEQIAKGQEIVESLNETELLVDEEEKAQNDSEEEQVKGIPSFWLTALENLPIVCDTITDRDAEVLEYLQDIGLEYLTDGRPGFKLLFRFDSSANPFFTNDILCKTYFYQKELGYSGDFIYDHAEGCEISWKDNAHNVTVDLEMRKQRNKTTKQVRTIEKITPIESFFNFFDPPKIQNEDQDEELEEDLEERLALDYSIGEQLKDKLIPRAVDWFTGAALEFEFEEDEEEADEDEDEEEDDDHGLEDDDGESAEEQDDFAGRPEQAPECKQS

Arc40 = Arc40 (UniProt P38328)
Tif4631 = Tif4631 (UniProt P39935)
Ygl242c = Ygl242c (UniProt P53066)
Ssb1 = Ssb1 (UniProt P11484)
Yor1 = Yor1 (UniProt P53049)
Arc18 = Arc18 (UniProt Q05933)
Smi1 = Smi1 (UniProt P32566)
Sla1 = Sla1 (UniProt P32790)
Pkh2 = molecular target: Pkh2
Cdc10 = Cdc10 (UniProt P25342)
Bzz1 = Bzz1 (UniProt P38822)
Chain of UniProt P38822 (P38822 whole entry): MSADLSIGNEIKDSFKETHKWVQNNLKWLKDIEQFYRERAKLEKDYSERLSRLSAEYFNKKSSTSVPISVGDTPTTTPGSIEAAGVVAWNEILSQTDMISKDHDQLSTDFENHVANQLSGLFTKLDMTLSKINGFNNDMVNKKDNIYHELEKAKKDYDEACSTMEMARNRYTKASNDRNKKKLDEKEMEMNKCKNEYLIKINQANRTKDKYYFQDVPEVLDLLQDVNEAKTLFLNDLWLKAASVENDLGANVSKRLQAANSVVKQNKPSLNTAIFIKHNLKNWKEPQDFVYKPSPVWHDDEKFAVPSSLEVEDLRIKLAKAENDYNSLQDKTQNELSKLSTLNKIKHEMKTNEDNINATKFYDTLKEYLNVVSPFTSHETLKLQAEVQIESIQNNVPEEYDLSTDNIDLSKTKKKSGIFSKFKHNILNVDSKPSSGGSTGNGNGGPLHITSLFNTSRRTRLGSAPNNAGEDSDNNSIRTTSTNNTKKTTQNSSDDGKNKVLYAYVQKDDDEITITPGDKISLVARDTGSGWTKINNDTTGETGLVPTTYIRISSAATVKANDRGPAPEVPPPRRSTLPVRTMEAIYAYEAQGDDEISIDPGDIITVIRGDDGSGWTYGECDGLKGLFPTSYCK

Rvs167 = Rvs167 (UniProt P39743)
Hsp104 = Hsp104 (UniProt P31539)
Myo5 = Myo5 (UniProt Q04439)
Las17 = Las17 (UniProt Q12446)
Lsb3 = Lsb3 (UniProt P43603)
Chain of UniProt P43603 (P43603 whole entry): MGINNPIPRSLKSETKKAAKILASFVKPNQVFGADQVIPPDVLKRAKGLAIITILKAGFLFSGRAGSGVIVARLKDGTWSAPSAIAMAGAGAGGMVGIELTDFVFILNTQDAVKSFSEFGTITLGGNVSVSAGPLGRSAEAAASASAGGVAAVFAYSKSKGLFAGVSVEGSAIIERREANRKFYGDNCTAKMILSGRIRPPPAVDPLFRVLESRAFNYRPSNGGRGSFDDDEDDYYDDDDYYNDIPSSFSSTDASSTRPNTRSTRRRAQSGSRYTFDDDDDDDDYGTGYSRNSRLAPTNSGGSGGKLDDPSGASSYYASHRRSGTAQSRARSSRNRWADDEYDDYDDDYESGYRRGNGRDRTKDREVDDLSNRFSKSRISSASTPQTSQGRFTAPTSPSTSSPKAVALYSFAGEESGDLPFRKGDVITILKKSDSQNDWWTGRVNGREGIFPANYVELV

Chc1 = Chc1 (UniProt P22137)
Chain of UniProt P22137 (P22137 whole entry): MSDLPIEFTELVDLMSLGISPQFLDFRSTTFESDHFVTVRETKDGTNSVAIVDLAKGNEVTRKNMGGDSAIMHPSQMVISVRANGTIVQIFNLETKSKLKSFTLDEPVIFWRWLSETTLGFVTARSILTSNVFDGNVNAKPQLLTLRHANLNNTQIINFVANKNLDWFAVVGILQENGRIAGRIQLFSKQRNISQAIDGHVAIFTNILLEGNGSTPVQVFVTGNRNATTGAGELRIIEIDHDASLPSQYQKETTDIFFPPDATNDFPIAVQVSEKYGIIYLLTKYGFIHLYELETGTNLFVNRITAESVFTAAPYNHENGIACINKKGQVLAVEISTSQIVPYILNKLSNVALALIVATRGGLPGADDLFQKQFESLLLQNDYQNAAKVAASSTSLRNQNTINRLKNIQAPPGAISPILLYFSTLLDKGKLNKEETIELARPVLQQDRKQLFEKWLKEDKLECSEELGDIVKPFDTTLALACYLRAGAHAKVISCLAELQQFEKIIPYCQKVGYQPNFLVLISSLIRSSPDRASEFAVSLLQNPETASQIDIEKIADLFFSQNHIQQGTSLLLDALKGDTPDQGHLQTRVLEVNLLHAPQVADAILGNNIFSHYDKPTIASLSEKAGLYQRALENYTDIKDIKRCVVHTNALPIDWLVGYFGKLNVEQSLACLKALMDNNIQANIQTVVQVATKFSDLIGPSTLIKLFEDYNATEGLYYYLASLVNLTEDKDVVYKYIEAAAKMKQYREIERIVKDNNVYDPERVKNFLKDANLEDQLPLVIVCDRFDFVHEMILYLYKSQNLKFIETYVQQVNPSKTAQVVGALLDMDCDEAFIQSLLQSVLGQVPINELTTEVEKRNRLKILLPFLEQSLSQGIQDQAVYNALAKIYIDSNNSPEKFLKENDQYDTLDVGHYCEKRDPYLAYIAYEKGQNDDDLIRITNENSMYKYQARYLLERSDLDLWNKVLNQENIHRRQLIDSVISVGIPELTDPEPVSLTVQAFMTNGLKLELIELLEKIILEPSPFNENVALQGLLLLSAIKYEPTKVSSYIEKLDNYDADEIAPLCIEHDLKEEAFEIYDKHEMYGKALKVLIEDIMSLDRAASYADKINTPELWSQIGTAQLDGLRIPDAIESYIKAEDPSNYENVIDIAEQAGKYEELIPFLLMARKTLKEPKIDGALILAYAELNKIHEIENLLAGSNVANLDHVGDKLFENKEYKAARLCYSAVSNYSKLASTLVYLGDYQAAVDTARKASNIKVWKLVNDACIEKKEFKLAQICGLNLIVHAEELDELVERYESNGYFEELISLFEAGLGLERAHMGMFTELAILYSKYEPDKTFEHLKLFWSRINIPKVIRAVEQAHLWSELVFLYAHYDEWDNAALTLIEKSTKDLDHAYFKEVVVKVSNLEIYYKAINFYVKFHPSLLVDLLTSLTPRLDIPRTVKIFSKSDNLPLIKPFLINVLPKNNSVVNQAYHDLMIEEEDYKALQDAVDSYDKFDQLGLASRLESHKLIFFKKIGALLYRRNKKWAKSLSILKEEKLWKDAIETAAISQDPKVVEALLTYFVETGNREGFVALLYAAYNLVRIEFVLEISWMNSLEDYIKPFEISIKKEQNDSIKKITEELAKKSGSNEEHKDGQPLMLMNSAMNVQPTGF

Sla2 = Sla2 (UniProt P33338)
Syp1 = Syp1 (UniProt P25623)
Ssb2 = Ssb2 (UniProt P40150)
Osh2 = Osh2 (UniProt Q12451)
Tdh3 = Tdh3 (UniProt P00359)
Chain of UniProt P00359 (P00359 whole entry): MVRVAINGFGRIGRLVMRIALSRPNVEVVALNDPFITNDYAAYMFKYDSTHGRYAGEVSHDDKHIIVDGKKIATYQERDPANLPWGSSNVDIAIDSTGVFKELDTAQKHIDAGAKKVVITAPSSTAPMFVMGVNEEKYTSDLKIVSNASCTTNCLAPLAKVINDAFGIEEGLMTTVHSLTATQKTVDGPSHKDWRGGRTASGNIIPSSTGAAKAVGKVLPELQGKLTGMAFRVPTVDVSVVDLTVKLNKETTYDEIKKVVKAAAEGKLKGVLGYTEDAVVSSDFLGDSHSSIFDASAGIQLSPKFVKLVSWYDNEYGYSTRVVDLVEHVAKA

Arc15 = Arc15 (UniProt P40518)
Chain of UniProt P40518 (P40518 whole entry): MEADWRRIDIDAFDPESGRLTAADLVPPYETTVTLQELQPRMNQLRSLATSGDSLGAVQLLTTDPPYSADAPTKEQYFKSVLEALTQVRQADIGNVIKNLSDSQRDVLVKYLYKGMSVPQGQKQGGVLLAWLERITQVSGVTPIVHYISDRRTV

Ysc84 = Ysc84 (UniProt P32793)
Arc19 = Arc19 (UniProt P33204)
Ssz1 = Ssz1 (UniProt P38788)
Ssa1 = Ssa1 (UniProt P10591)

Chain of UniProt P04147 (P04147 whole entry): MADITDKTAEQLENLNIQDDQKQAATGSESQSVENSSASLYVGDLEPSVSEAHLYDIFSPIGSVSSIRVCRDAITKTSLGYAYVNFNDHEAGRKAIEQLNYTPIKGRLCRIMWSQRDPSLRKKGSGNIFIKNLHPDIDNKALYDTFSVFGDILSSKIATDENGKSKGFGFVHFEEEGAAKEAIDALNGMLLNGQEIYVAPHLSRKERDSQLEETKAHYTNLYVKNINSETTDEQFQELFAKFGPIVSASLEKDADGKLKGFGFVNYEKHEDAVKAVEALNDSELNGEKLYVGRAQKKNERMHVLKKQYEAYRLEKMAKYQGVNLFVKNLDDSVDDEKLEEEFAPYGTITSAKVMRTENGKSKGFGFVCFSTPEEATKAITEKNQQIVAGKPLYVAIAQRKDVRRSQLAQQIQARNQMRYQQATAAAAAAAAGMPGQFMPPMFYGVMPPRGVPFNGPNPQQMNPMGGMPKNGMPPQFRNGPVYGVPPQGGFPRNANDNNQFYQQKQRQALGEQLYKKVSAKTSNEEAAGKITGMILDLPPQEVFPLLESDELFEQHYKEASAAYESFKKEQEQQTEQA

## Myo5 with SH3 AncB (from UniProt Q04439)
Vrp1
  interaction score: 0.919
Pab1
  interaction score: 0.797
Pfk1
  interaction score: 0.867
Hek2
  interaction score: 0.417
Sfk1
  interaction score: 0.733
Aim21
  interaction score: 0.755
Sbp1
  interaction score: 0.832
Pan1
  interaction score: 0.926
Bmh1
  interaction score: 0.823
Ste20
  interaction score: 0.482
Mid2
  interaction score: 0.854
Srv2
  interaction score: 0.649
Bbc1
  interaction score: 0.758
Cmd1
  interaction score: 0.497
Sac6
  interaction score: 0.823
Cdc3
  interaction score: 0.515
Nap1
  interaction score: 0.52
Arc40
  interaction score: 0.964
Tif4631
  interaction score: 0.672
Ygl242c
  interaction score: 0.942
Ssb1
  interaction score: 0.941
Yor1
  interaction score: 0.488
Arc18
  interaction score: 0.878
Smi1
  interaction score: 0.562
Sla1
  interaction score: 0.568
Pkh2
  interaction score: 0.0795
Cdc10
  interaction score: 0.416
Bzz1
  interaction score: 0.818
Rvs167
  interaction score: 0.567
Hsp104
  interaction score: 0.767
Myo5
  interaction score: 0.901
Las17
  interaction score: 0.875
Lsb3
  interaction score: 0.637
Chc1
  interaction score: 0.603
Sla2
  interaction score: 0.646
Syp1
  interaction score: 0.564
Ssb2
  interaction score: 0.932
Osh2
  interaction score: 0.755
Tdh3
  interaction score: 0.97
Arc15
  interaction score: 0.898
Ysc84
  interaction score: 0.505
Arc19
  interaction score: 0.771
Ssz1
  interaction score: 0.834

## Myo5 with SH3 SH3-depleted (from UniProt Q04439)
Vrp1
  interaction score: 0.606
Pab1
  interaction score: 0.813
Pfk1
  interaction score: 0.874
Hek2
  interaction score: 0.342
Sfk1
  interaction score: 0.219
Aim21
  interaction score: 0.454
Sbp1
  interaction score: 0.852
Pan1
  interaction score: 0.616
Bmh1
  interaction score: 0.821
Ste20
  interaction score: 0.28
Mid2
  interaction score: 0.79
Srv2
  interaction score: 0.398
Bbc1
  interaction score: 0.139
Cmd1
  interaction score: 0.27
Sac6
  interaction score: 0.766
Cdc3
  interaction score: 0.288
Nap1
  interaction score: 0.514
Arc40
  interaction score: 0.949
Tif4631
  interaction score: 0.689
Ygl242c
  interaction score: 0.95
Ssb1
  interaction score: 0.94
Yor1
  interaction score: 0.144
Arc18
  interaction score: 0.775
Smi1
  interaction score: 0.547
Sla1
  interaction score: 0.27
Cdc10
  interaction score: 0.289
Bzz1
  interaction score: 0.34
Rvs167
  interaction score: 0.0148
Hsp104
  interaction score: 0.771
Myo5
  interaction score: 0.763
Las17
  interaction score: 0.367
Lsb3
  interaction score: 0.339
Chc1
  interaction score: 0.599
Sla2
  interaction score: 0.341
Syp1
  interaction score: 0.199
Ssb2
  interaction score: 0.946
Osh2
  interaction score: 0.0609
Tdh3
  interaction score: 0.969
Arc15
  interaction score: 0.877
Ysc84
  interaction score: 0.281
Arc19
  interaction score: 0.469
Ssz1
  interaction score: 0.853

## Myo5 with SH3 controlMyo5 (from UniProt Q04439)
Vrp1
  interaction score: 0.912
Pab1
  interaction score: 0.785
Pfk1
  interaction score: 0.855
Hek2
  interaction score: 0.36
Sfk1
  interaction score: 0.716
Aim21
  interaction score: 0.756
Sbp1
  interaction score: 0.827
Pan1
  interaction score: 0.926
Bmh1
  interaction score: 0.82
Ste20
  interaction score: 0.421
Mid2
  interaction score: 0.857
Srv2
  interaction score: 0.628
Bbc1
  interaction score: 0.758
Cmd1
  interaction score: 0.582
Sac6
  interaction score: 0.825
Cdc3
  interaction score: 0.433
Nap1
  interaction score: 0.463
Arc40
  interaction score: 0.952
Tif4631
  interaction score: 0.662
Ssa1
  interaction score: 0.902
Ygl242c
  interaction score: 0.929
Ssb1
  interaction score: 0.929
Yor1
  interaction score: 0.432
Arc18
  interaction score: 0.87
Smi1
  interaction score: 0.532
Sla1
  interaction score: 0.539
Pkh2
  interaction score: 0.102
Cdc10
  interaction score: 0.374
Bzz1
  interaction score: 0.823
Rvs167
  interaction score: 0.5
Hsp104
  interaction score: 0.76
Myo5
  interaction score: 0.898
Las17
  interaction score: 0.877
Lsb3
  interaction score: 0.624
Chc1
  interaction score: 0.578
Sla2
  interaction score: 0.644
Syp1
  interaction score: 0.527
Ssb2
  interaction score: 0.93
Osh2
  interaction score: 0.745
Tdh3
  interaction score: 0.965
Arc15
  interaction score: 0.901
Ysc84
  interaction score: 0.463
Arc19
  interaction score: 0.766
Ssz1
  interaction score: 0.83

## Myo5 with SH3 extantMyo5 (from UniProt Q04439)
Vrp1
  interaction score: 0.917
Pab1
  interaction score: 0.8
Pfk1
  interaction score: 0.869
Hek2
  interaction score: 0.321
Sfk1
  interaction score: 0.736
Aim21
  interaction score: 0.762
Sbp1
  interaction score: 0.824
Pan1
  interaction score: 0.926
Bmh1
  interaction score: 0.815
Ste20
  interaction score: 0.401
Mid2
  interaction score: 0.864
Srv2
  interaction score: 0.632
Bbc1
  interaction score: 0.762
Cmd1
  interaction score: 0.26
Sac6
  interaction score: 0.823
Cdc3
  interaction score: 0.422
Nap1
  interaction score: 0.48
Arc40
  interaction score: 0.969
Tif4631
  interaction score: 0.665
Ssa1
  interaction score: 0.914
Ygl242c
  interaction score: 0.938
Ssb1
  interaction score: 0.942
Yor1
  interaction score: 0.454
Arc18
  interaction score: 0.868
Smi1
  interaction score: 0.518
Sla1
  interaction score: 0.523
Pkh2
  interaction score: 0.11
Cdc10
  interaction score: 0.366
Bzz1
  interaction score: 0.814
Rvs167
  interaction score: 0.503
Hsp104
  interaction score: 0.758
Myo5
  interaction score: 0.901
Las17
  interaction score: 0.876
Lsb3
  interaction score: 0.62
Chc1
  interaction score: 0.568
Sla2
  interaction score: 0.621
Syp1
  interaction score: 0.513
Ssb2
  interaction score: 0.932
Osh2
  interaction score: 0.756
Tdh3
  interaction score: 0.97
Arc15
  interaction score: 0.9
Ysc84
  interaction score: 0.463
Arc19
  interaction score: 0.768
Ssz1
  interaction score: 0.835

## Myo5 with SH3 swap-optMyo3 (from UniProt Q04439)
Vrp1
  interaction score: 0.92
Pab1
  interaction score: 0.795
Hek2
  interaction score: 0.401
Sfk1
  interaction score: 0.746
Aim21
  interaction score: 0.767
Sbp1
  interaction score: 0.835
Pan1
  interaction score: 0.936
Bmh1
  interaction score: 0.833
Ste20
  interaction score: 0.425
Mid2
  interaction score: 0.868
Srv2
  interaction score: 0.656
Bbc1
  interaction score: 0.767
Cmd1
  interaction score: 0.458
Sac6
  interaction score: 0.836
Cdc3
  interaction score: 0.457
Nap1
  interaction score: 0.482
Arc40
  interaction score: 0.97
Tif4631
  interaction score: 0.689
Ssa1
  interaction score: 0.91
Ygl242c
  interaction score: 0.944
Ssb1
  interaction score: 0.942
Yor1
  interaction score: 0.481
Arc18
  interaction score: 0.88
Smi1
  interaction score: 0.562
Sla1
  interaction score: 0.56
Pkh2
  interaction score: 0.095
Cdc10
  interaction score: 0.379
Bzz1
  interaction score: 0.835
Rvs167
  interaction score: 0.53
Hsp104
  interaction score: 0.774
Myo5
  interaction score: 0.907
Las17
  interaction score: 0.879
Lsb3
  interaction score: 0.643
Chc1
  interaction score: 0.598
Sla2
  interaction score: 0.664
Syp1
  interaction score: 0.543
Ssb2
  interaction score: 0.935
Osh2
  interaction score: 0.762
Tdh3
  interaction score: 0.971
Arc15
  interaction score: 0.903
Ysc84
  interaction score: 0.475
Arc19
  interaction score: 0.78
